# Measurements taken from paper PMC2807882, “Conservation of DNA-binding specificity and oligomerisation properties within the p53 family”.
# T1: ΔNp73β (Homo sapiens, UniProt O15350-9 1-450)
# T1 sequence: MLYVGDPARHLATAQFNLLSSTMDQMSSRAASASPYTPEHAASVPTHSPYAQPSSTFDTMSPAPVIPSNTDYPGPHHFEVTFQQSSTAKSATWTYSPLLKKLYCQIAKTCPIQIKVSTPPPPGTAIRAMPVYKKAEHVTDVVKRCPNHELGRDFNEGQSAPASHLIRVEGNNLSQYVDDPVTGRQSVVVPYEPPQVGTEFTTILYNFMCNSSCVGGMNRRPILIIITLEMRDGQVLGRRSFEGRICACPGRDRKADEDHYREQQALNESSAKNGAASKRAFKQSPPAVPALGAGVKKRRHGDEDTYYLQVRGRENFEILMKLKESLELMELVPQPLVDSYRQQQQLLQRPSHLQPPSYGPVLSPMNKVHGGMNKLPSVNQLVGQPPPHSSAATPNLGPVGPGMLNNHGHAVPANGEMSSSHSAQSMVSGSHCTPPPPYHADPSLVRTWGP
# T2: ΔNp63β (Homo sapiens, UniProt Q9H3D4-4 1-461)
# T2 sequence: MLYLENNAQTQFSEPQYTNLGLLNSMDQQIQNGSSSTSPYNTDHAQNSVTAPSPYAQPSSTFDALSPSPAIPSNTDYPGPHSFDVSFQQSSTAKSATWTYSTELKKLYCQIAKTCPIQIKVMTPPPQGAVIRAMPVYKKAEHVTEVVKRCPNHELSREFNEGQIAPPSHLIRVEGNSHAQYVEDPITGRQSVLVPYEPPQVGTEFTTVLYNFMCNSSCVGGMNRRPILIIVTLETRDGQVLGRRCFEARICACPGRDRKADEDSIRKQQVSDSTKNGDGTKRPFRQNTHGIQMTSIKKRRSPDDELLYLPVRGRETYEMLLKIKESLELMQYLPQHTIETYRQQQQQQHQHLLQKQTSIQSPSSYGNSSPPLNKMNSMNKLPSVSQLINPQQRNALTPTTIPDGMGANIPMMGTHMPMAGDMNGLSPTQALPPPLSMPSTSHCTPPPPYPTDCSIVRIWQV
# T3: ΔNp63γ (Homo sapiens, UniProt Q9H3D4-6 1-393)
# T3 sequence: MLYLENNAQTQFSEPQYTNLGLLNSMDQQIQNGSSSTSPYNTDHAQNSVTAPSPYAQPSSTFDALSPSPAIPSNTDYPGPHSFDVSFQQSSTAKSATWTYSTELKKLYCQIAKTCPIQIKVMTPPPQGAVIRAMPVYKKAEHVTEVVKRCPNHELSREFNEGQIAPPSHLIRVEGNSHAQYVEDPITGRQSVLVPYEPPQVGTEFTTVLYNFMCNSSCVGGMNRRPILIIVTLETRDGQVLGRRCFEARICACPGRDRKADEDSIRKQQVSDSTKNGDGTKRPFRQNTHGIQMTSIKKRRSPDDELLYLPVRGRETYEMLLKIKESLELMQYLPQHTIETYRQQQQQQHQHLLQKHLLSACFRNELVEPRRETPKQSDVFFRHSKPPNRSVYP
# T4: ΔNp63α (Homo sapiens, UniProt Q9H3D4-2 1-586)
# T4 sequence: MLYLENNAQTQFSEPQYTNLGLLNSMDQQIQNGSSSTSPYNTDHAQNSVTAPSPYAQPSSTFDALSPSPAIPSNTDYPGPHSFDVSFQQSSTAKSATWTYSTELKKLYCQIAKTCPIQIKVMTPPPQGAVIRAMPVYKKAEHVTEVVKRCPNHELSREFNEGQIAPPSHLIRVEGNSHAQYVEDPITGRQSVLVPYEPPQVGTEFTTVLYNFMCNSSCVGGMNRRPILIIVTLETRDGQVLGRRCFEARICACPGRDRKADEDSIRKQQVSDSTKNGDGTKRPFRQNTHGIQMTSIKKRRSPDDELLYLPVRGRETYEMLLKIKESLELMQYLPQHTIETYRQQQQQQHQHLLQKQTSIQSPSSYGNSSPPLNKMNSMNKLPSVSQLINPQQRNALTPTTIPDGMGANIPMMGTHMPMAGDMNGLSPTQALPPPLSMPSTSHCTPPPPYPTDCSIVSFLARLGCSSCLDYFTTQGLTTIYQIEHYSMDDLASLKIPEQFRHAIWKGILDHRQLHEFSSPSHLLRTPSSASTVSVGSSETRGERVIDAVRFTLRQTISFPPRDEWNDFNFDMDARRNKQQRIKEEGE
# T5: Dmp53 (Drosophila melanogaster, UniProt Q9N6D8 1-385)
# T5 sequence: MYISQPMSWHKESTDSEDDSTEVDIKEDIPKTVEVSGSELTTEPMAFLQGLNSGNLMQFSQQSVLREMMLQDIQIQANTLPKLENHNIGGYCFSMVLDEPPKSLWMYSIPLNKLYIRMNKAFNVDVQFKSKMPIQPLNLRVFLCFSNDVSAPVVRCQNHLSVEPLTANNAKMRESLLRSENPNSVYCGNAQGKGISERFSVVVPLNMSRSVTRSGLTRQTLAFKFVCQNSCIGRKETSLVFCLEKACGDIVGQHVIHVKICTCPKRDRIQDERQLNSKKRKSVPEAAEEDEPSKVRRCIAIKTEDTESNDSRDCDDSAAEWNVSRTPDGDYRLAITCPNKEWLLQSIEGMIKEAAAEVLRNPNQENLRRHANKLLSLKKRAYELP
# T6: Drp53 (Danio rerio, UniProt P79734 1-373)
# T6 sequence: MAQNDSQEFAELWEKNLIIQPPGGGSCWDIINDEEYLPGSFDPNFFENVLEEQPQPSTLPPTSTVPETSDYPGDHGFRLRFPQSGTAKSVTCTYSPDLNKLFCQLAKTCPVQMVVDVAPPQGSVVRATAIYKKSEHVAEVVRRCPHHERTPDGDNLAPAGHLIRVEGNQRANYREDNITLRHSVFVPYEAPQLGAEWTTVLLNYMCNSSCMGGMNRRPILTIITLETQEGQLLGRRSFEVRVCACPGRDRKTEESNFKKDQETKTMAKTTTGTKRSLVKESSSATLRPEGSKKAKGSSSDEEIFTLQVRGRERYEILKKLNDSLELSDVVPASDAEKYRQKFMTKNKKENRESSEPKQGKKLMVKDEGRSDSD
# B1: G7C (dsDNA)
# DNA 1: CGCGGACATCTCCGGACATGTCCCGC
# DNA 2: GCGGGACATGTCCGGAGATGTCCGCG
# B2: T6C (dsDNA)
# DNA 1: CGCGGACACGTCCGGACATGTCCCGC
# DNA 2: GCGGGACATGTCCGGACGTGTCCGCG
# B3: G2C (dsDNA)
# DNA 1: CGCGCACATGTCCGGACATGTCCCGC
# DNA 2: GCGGGACATGTCCGGACATGTGCGCG
# B4: A5C (dsDNA)
# DNA 1: CGCGGACCTGTCCGGACATGTCCCGC
# DNA 2: GCGGGACATGTCCGGACAGGTCCGCG
# B5: A3C (dsDNA)
# DNA 1: CGCGGCCATGTCCGGACATGTCCCGC
# DNA 2: GCGGGACATGTCCGGACATGGCCGCG
# B6: A5G (dsDNA)
# DNA 1: CGCGGACGTGTCCGGACATGTCCCGC
# DNA 2: GCGGGACATGTCCGGACACGTCCGCG
# Molecular target: T1, ΔNp73β
# Assay: anisotropy competition; 25 mM NaPi, 225 mM NaCl, 10% v/v glycerol, 5 mM DTT, 0.2 mg/mL BSA, 22°C; 20 nM labelled DNA; pH not stated for the binding assay
# Details: protein: recombinant; tags: N-terminal 6xHis-lipoyl-TEV tag, cleaved; chain copies: 4
row,Binder,binding signal
1,B1,1.8 ΔlogKd vs ref
2,B2,0.62 ΔlogKd vs ref
3,B3,0.44 ΔlogKd vs ref
4,B4,0.64 ΔlogKd vs ref

# Molecular target: Mmp53 (Mus musculus, UniProt P02340 1-390)
# Sequence (P02340 whole entry): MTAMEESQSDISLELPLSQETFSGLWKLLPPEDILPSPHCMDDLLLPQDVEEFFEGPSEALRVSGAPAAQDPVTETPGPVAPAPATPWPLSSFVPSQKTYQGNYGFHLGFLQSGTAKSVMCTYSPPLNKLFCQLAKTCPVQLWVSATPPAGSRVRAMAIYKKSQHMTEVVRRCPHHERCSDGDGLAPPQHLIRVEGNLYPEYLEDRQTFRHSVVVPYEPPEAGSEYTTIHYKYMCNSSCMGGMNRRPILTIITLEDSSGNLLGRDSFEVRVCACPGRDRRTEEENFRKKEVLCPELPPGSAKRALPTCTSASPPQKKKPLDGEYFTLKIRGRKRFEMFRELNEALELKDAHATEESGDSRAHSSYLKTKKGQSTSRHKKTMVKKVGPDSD
# Assay: as above
# Details: protein: recombinant; tags: N-terminal 6xHis-lipoyl-TEV tag, cleaved; chain copies: 4
row,Binder,binding signal
1,B5,0.46 ΔlogKd vs ref
2,B1,0.67 ΔlogKd vs ref
3,B2,0.36 ΔlogKd vs ref
4,B3,0.28 ΔlogKd vs ref
5,B4,0.4 ΔlogKd vs ref

# Molecular target: T2, ΔNp63β
# Assay: as above
# Details: protein: recombinant; tags: N-terminal 6xHis-lipoyl-TEV tag, cleaved; chain copies: 4
row,Binder,binding signal
1,B1,1.45 ΔlogKd vs ref
2,B2,0.57 ΔlogKd vs ref
3,B3,0.36 ΔlogKd vs ref
4,B4,0.57 ΔlogKd vs ref

# Molecular target: T3, ΔNp63γ
# Assay: as above
# Details: protein: recombinant; tags: N-terminal 6xHis-lipoyl-TEV tag, cleaved; chain copies: 4
row,Binder,binding signal
1,B5,0.93 ΔlogKd vs ref
2,B1,1.68 ΔlogKd vs ref
3,B2,0.52 ΔlogKd vs ref
4,B3,0.37 ΔlogKd vs ref
5,B4,0.58 ΔlogKd vs ref

# Molecular target: T4, ΔNp63α
# Assay: as above
# Details: protein: recombinant; tags: N-terminal 6xHis-lipoyl-TEV tag, cleaved; chain copies: 4
row,Binder,binding signal
1,B1,1.33 ΔlogKd vs ref
2,B2,0.25 ΔlogKd vs ref
3,B3,0.15 ΔlogKd vs ref
4,B4,0.3 ΔlogKd vs ref

# Molecular target: T5, Dmp53
# Assay: as above
# Details: protein: recombinant; tags: N-terminal 6xHis-lipoyl-TEV tag, cleaved; chain copies: 4
row,Binder,binding signal
1,B5,0.75 ΔlogKd vs ref
2,B1,1.51 ΔlogKd vs ref
3,B2,0.25 ΔlogKd vs ref
4,B4,0.54 ΔlogKd vs ref

# Molecular target: T7, Xlp53 (Xenopus laevis, UniProt Q7T1D0 1-362)
# T7 sequence (Q7T1D0 entry or part of it): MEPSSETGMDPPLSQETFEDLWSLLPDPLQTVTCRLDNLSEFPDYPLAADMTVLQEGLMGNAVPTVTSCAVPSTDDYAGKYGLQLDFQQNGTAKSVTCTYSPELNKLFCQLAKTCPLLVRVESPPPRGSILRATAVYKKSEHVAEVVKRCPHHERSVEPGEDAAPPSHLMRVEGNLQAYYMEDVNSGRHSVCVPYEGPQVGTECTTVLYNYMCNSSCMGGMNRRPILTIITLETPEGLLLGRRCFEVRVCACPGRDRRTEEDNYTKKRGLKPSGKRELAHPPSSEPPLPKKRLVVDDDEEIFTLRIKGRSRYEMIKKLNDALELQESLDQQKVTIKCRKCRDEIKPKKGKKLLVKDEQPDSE
# Assay: as above
# Details: protein: recombinant; tags: N-terminal 6xHis-lipoyl-TEV tag, cleaved; chain copies: 4
row,Binder,binding signal
1,B5,0.82 ΔlogKd vs ref
2,B2,0.7 ΔlogKd vs ref
3,B3,0.27 ΔlogKd vs ref
4,B4,0.48 ΔlogKd vs ref

# Molecular target: Hsp53 (Homo sapiens, UniProt P04637 1-393)
# Sequence (P04637 whole entry): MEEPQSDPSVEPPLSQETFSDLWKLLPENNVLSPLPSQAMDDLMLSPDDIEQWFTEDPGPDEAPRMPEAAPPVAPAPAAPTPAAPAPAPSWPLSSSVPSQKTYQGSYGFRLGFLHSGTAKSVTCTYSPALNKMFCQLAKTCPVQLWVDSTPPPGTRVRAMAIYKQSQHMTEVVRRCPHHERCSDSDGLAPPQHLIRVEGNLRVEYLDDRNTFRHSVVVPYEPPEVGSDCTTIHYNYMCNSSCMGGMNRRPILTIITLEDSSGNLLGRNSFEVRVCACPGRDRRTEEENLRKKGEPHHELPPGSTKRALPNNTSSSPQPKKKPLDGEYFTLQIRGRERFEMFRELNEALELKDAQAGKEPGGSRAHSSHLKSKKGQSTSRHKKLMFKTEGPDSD
# Assay: as above
# Details: protein: recombinant; tags: N-terminal 6xHis-lipoyl-TEV tag, cleaved; chain copies: 4
row,Binder,binding signal
1,B5,0.66 ΔlogKd vs ref
2,B1,0.9 ΔlogKd vs ref
3,B2,0.53 ΔlogKd vs ref
4,B3,0.37 ΔlogKd vs ref
5,B4,0.45 ΔlogKd vs ref

# Molecular target: T6, Drp53
# Assay: as above
# Details: protein: recombinant; tags: N-terminal 6xHis-lipoyl-TEV tag, cleaved; chain copies: 4
row,Binder,binding signal
1,B1,1.3 ΔlogKd vs ref
2,B2,0.65 ΔlogKd vs ref
3,B3,0.41 ΔlogKd vs ref
4,B4,0.77 ΔlogKd vs ref

# Molecular target: T7, Xlp53
# Assay: as above
# Details: protein: recombinant; tags: N-terminal 6xHis-lipoyl-TEV tag, cleaved; chain copies: 4
# Remark: another data set of the same source
row,Binder,Kd
1,B1,-5.7 log10(M)
2,B6,-6.64 log10(M)
